These results are taken from patent publication EP4803541A1 (Changchun Genescience Pharmaceutical Co., Ltd., dated 2026).

In the test the target is T1, rhGH protein (UniProt: P01241) (human, UniProt P01241 27-217).
T1 construct: Coated at 5 ug/ml in the ELISA; also called human growth hormone
The test can be described thus: ELISA on coated rhGH, anti-6*His HRP; sample after 0.3 M NaOH 24h. (In an ELISA, binding on a coated surface is turned into a signal by an enzyme label.)

T1 sequence (P01241 27-217 limits assumed, one chain of several): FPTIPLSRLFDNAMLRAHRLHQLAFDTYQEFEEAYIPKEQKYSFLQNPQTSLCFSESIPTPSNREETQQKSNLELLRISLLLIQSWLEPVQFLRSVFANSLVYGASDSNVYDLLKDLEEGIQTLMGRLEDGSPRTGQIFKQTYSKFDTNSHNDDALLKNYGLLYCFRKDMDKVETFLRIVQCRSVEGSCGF

B1: M29 (First round) (VHH)
VHH: QVQLVESGGGLAQAGGSLRLSCAVSGMPEFARAMGWFRQAPGKERELLAAIEGIGAKTYYADSVKGRFTISRDDAANTVLLQMNSLKPDDTAVYYCAAAFSVTIPTRARHWVDWGPGTLVTVSS
notes: tail DDDDK-SGGGGS-HHHHHH
In the case of B1, the binding result is reported as “binds”.

B2: M31 (First round) (VHH)
VHH: QVQLVESGGGLAQAGGSLRLSCAVSGMPEFARAMGWFRQAPGKERELLAAIEGIGATTYYADSVKGRFTISRDDAANTVLLQMNSLKPDDTAVYYCAAAFSVTIPTRAEHWVDWGPGTLVTVSS
notes: tail DDDDK-SGGGGS-HHHHHH
Consider B2, for which the binding result was “binds”.
